Experimental data from patent US20260242478A1 (published 2026).
Where no end group is shown, it is not given here.

Tests used:
[1] = biological target: T1, Anti-PSMA Fab (SEQ ID NOs: 19, 20); test: phage binding ELISA; Fab-coated wells pre-incubated with PSMA antigen as competitor, anti-M13 HRP detection
T1 construct: Biotinylated and captured on neutravidin coated plates in the phage ELISA; also called 006 PSMA Fab
Method: (§1) Clonal phage were harvested as crude supernatants and screened via standard ELISAs. […] Prior to the addition of clonal phage. wells were incubated with blocking buffer and PSMA antigen or blocking buffer alone. Without washing or aspirating, clonal phage supernatants were then added to the wells and incubated for a short time. Wells were then washed followed by detection of bound phage using a horse radish conjugated anti-M13 antibody.

[2] = biological target: T1, Anti-PSMA Fab (SEQ ID NOs: 19, 20); test: phage binding ELISA; biotinylated PSMA Fab on neutravidin plates, clonal phage supernatant, anti-M13 HRP detection
Method: as §1

[3] = biological target: T2, Anti-PSMA Fab (SEQ ID NOs: 19, 20); test: phage ELISA on captured PSMA Fab, wells pre-incubated with the competitor PSMA antigen
T2 construct: Biotinylated PSMA Fab captured on neutravidin coated plates in the phage ELISA; also called 006 PSMA Fab
Method: as §1

[4] = biological target: T2, Anti-PSMA Fab (SEQ ID NOs: 19, 20); test: phage ELISA; biotinylated PSMA Fab on neutravidin plate, bound phage detected with anti-M13-HRP;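 note: crude clonal phage supernatants added, without a wash, to wells pretreated with PSMA antigen in blocking buffer or with blocking buffer only, then briefly incubated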
Method: as §1

[5] = biological target: T3, Anti-PSMA Fab (SEQ ID NOs: 19, 20); test: phage binding ELISA; biotinylated PSMA Fab on neutravidin plate, bound phage detected with anti-M13-HRP
T3 construct: Biotinylated and captured on neutravidin coated plates in the phage ELISA; also called 006 PSMA Fab
Method: as §1

[6] = biological target: T3, Anti-PSMA Fab (SEQ ID NOs: 19, 20); test: phage binding ELISA; PSMA Fab on plate pre-incubated with PSMA antigen as competitor, anti-M13-HRP detection
Method: as §1

[7] = biological target: T4, Anti-PSMA Fab (SEQ ID NOs: 19, 20); test: phage binding ELISA; biotinylated PSMA Fab on neutravidin plate, clonal phage, anti-M13-HRP detection
T4 construct: Biotinylated PSMA Fab captured on neutravidin coated plates in the phage ELISA; also called 006 PSMA Fab
Method: as §1

[8] = biological target: T4, Anti-PSMA Fab (SEQ ID NOs: 19, 20); test: phage binding ELISA; Fab-coated wells pre-incubated with PSMA antigen as competitor, anti-M13-HRP detection;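 note: clonal phage supernatants screened, with reference wells given blocking buffer only (no PSMA antigen) before phage were added for a brief incubation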
Method: as §1

Row | Binder | Anti-PSMA Fab signal in the presence of PSMA [1] | Anti-PSMA Fab signal [2] | Anti-PSMA Fab (SEQ ID NOs: 19, 20) signal [5] | Anti-PSMA Fab signal in the presence of PSMA [6] | also measured
1 | VDKWCIPQWMCDDQ (tested as clonal phage supernatant) [Phage-2054] | 0.116 | 1.77 |  |  | 
2 | VEKWCTPPWMCSLF (tested as crude clonal phage supernatant) [Phage-2057] |  |  |  |  | Anti-PSMA Fab signal in the presence of PSMA (phage binding ELISA) [3]: 0.1; Anti-PSMA Fab signal (phage binding ELISA) [4]: 1.77
3 | IVKWCTPEWMCVGF [Phage-2034] |  |  | 1.8 | 0.154 | 
4 | VIKLCSPPWMCIGL (Peptide-180 library clone, tested as clonal phage supernatant) [Phage-2020] |  |  |  |  | Anti-PSMA Fab (SEQ ID NOs: 19, 20) signal [7]: 1.82; Anti-PSMA Fab signal in the presence of PSMA [8]: 0.0946
5 | PERWCIPVWMCESG (Peptide-180 library clone, tested as clonal phage supernatant) [Phage-2014] |  |  |  |  | Anti-PSMA Fab (SEQ ID NOs: 19, 20) signal [7]: 1.83; Anti-PSMA Fab signal in the presence of PSMA [8]: 0.0731
6 | ELKRCTPSWMCEGI (Peptide-180 library clone, tested as clonal phage supernatant) [Phage-2025] |  |  |  |  | Anti-PSMA Fab (SEQ ID NOs: 19, 20) signal [7]: 1.82; Anti-PSMA Fab signal in the presence of PSMA [8]: 0.059
7 | MERWCKPAWMCADM (cysteine pairing not given here; also: fused to phage pIII, pIII sequence and linker not given here) [Phage-2038] |  |  | 1.8 | 0.0809 | 
8 | IIKWCIPEWMCYMH [Phage-2028] |  |  | 1.81 | 0.104 | 
9 | EAIWCVPKWMCEGM (tested as clonal phage supernatant) [Phage-2050] | 0.0786 | 1.78 |  |  | 
10 | FPQWCIPIWMCEHT (tested as clonal phage supernatant) [Phage-2052] | 0.065 | 1.78 |  |  | 
11 | ALMWCIPQWMCQDQ (Peptide-180 library clone, tested as clonal phage supernatant) [Phage-2023] |  |  |  |  | Anti-PSMA Fab (SEQ ID NOs: 19, 20) signal [7]: 1.82; Anti-PSMA Fab signal in the presence of PSMA [8]: 0.102
12 | DIKWCIPPWMCQVE [Phage-2032] |  |  | 1.81 | 0.0691 | 
13 | QMKWCTPEWMCVGM [Phage-2041] |  |  | 1.79 | 0.0767 | 
14 | MVKWCFPEWMCWTD (Peptide-180 library clone, tested as clonal phage supernatant) [Phage-2017] |  |  |  |  | Anti-PSMA Fab (SEQ ID NOs: 19, 20) signal [7]: 1.83; Anti-PSMA Fab signal in the presence of PSMA [8]: 0.136
15 | IVKWCTPPWMCTIY (Peptide-180 library clone, tested as clonal phage supernatant) [Phage-2019] |  |  |  |  | Anti-PSMA Fab (SEQ ID NOs: 19, 20) signal [7]: 1.83; Anti-PSMA Fab signal in the presence of PSMA [8]: 0.153
16 | VDHWCTPAWMCDGF (tested as clonal phage supernatant) [Phage-2047] | 0.106 | 1.78 |  |  | 
17 | VQKWCIPAWMCDYV (Peptide-180 library clone, tested as clonal phage supernatant) [Phage-2024] |  |  |  |  | Anti-PSMA Fab (SEQ ID NOs: 19, 20) signal [7]: 1.82; Anti-PSMA Fab signal in the presence of PSMA [8]: 0.0734
18 | VVQLCSPVWMCEGF (Peptide-180 library clone, tested as clonal phage supernatant) [Phage-2015] |  |  |  |  | Anti-PSMA Fab (SEQ ID NOs: 19, 20) signal [7]: 1.83; Anti-PSMA Fab signal in the presence of PSMA [8]: 0.086
19 | MDHWCTPPWMCEGW (tested as clonal phage supernatant) [Phage-2042] | 0.0642 | 1.79 |  |  | 
20 | QLNWCIPEWMCQGL (Peptide-180 library clone, tested as clonal phage supernatant) [Phage-2022] |  |  |  |  | Anti-PSMA Fab (SEQ ID NOs: 19, 20) signal [7]: 1.82; Anti-PSMA Fab signal in the presence of PSMA [8]: 0.124
21 | VEKWCIPSWMCAEV (cysteine pairing not given here; also: fused to phage pIII, pIII sequence and linker not given here) [Phage-2031] |  |  | 1.81 | 0.086 | 
22 | VVHWCIPEWMCERI (tested as clonal phage supernatant) [Phage-2053] | 0.098 | 1.78 |  |  | 

Row | Binder | Anti-PSMA Fab signal in the presence of PSMA [1] | Anti-PSMA Fab signal [2] | Anti-PSMA Fab (SEQ ID NOs: 19, 20) signal [5] | Anti-PSMA Fab signal in the presence of PSMA [6] | also measured
23 | PIRLCIPEWMCEMV (Peptide-180 library clone, tested as clonal phage supernatant) [Phage-2016] |  |  |  |  | Anti-PSMA Fab (SEQ ID NOs: 19, 20) signal [7]: 1.83; Anti-PSMA Fab signal in the presence of PSMA [8]: 0.0575
24 | IDKWCIPMWMCEMS (tested as clonal phage supernatant) [Phage-2045] | 0.0708 | 1.79 |  |  | 
25 | LEKWCTPLWMCVGI (Peptide-180 library clone, tested as clonal phage supernatant) [Phage-2026] |  |  |  |  | Anti-PSMA Fab (SEQ ID NOs: 19, 20) signal [7]: 1.82; Anti-PSMA Fab signal in the presence of PSMA [8]: 0.078
26 | VAKWCTPPWMCAWL (cysteine pairing not given here; also: fused to phage pIII, pIII sequence and linker not given here, tested as clonal phage supernatant) [Phage-2048] | 0.197 | 1.78 |  |  | 
27 | VHKWCIPSWMCEAP [Phage-2040] |  |  | 1.79 | 0.0914 | 
28 | VMPWCIPQWMCVGE (tested as clonal phage supernatant) [Phage-2049] | 0.0873 | 1.78 |  |  | 
29 | ASPMCIPEWMCSGV [Phage-2037] |  |  | 1.8 | 0.0687 | 
30 | WLNWCTPEWMCNGF (tested as clonal phage supernatant) [Phage-2056] | 0.147 | 1.77 |  |  | 
31 | WPMLCIPEWMCDGL [Phage-2033] |  |  | 1.8 | 0.0977 | 
32 | TEIWCIPPWMCDGQ (Peptide-180 library clone, tested as clonal phage supernatant) [Phage-2021] |  |  |  |  | Anti-PSMA Fab (SEQ ID NOs: 19, 20) signal [7]: 1.82; Anti-PSMA Fab signal in the presence of PSMA [8]: 0.0686
33 | EAKWCIPAWMCEDA [Phage-2036] |  |  | 1.8 | 0.0685 | 
34 | LDKWCTPSWMCYGM (Peptide-180 library clone, tested as clonal phage supernatant) [Phage-2018] |  |  |  |  | Anti-PSMA Fab (SEQ ID NOs: 19, 20) signal [7]: 1.83; Anti-PSMA Fab signal in the presence of PSMA [8]: 0.106
35 | APKLCIPNWMCVSM (tested as clonal phage supernatant) [Phage-2055] | 0.0746 | 1.77 |  |  | 
36 | VPKWCTPSWMCEST (tested as clonal phage supernatant) [Phage-2043] | 0.0787 | 1.79 |  |  | 
37 | EVKWCTPEWMCAFL (cysteine pairing not given here; also: fused to phage pIII, pIII sequence and linker not given here, tested as clonal phage supernatant) [Phage-2044] | 0.0578 | 1.79 |  |  | 
38 | DLPWCIPAWMCMGL [Phage-2039] |  |  | 1.8 | 0.0665 | 
39 | VPKWCTPAWMCNWN (tested as clonal phage supernatant) [Phage-2051] | 0.12 | 1.78 |  |  | 
40 | ELQRCTPWWMCFDV [Phage-2027] |  |  | 1.81 | 0.0689 | 
41 | FEKWCIPSWMCENA [Phage-2030] |  |  | 1.81 | 0.0725 | 
42 | EVHRCIPAWMCTTP (tested as clonal phage supernatant) [Phage-2046] | 0.0934 | 1.79 |  |  | 
43 | SLNWCIPEWMCEGF [Phage-2035] |  |  | 1.8 | 0.0793 | 
44 | EGKWCIPPWMCERN [Phage-2029] |  |  | 1.81 | 0.0762 | 
